Laboratory results taken from patent US20240239884A1 (Merck Sharp & Dohme, published 2024).

How the values were obtained:
[1] = biological target: T1, human IL-23 (human, UniProt P29460 23-328); test: equilibrium binding ELISA on plates coated with human IL-23; potency against reference material; storage at 5 C, 18 months (second Binding ELISA row)
T1 construct: also called human IL-23 cytokine; human IL-23 protein
T1 sequence 1: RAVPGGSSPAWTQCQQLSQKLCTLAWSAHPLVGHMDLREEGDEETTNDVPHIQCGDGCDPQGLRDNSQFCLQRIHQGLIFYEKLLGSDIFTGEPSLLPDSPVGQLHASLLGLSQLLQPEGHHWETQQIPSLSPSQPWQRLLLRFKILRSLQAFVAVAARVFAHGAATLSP
T1 sequence 2: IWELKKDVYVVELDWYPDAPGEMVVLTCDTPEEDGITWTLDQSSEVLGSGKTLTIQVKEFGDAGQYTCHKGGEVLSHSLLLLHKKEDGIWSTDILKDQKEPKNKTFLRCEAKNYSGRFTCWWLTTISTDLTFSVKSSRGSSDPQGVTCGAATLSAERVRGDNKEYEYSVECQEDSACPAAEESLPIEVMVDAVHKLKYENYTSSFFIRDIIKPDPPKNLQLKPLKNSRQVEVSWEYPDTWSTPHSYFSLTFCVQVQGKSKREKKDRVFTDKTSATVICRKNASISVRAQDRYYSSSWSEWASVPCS
Experimental: (§1) The affinity of hum13B8-b in the formulations of the present invention for human IL-23 is assessed in an equilibrium binding ELISA, where serial dilutions of reference material and test samples are applied to assay plates coated with human IL-23 cytokine. This assay may be used, for example, to assess retention of biological activity in various potential therapeutic formulations. Relative potency of the test sample is assessed by comparison of the dose response curve of the test sample to the dose response curve of reference material and calculated as percent of reference.
(§2) ELISAs are performed by methods well known in the art. Briefly, serial dilutions of hum13B8-b in a formulation of the present invention are added to wells of a microtiter plate that had been previously coated with human IL-23 protein and then blocked. After an incubation period, wells are washed and a peroxidase-conjugated goat anti-human IgG (Fc) detection antibody reagent is added. Wells are again washed, and a chemiluminescent peroxidase substrate is added. Signal is read out by chemiluminescence. […] Relative biological potency is calculated by comparing results obtained with test samples with a standard curve based on signal levels obtained with a reference sample. […]

[2] = biological target: T1, human IL-23; test: equilibrium binding ELISA on plates coated with human IL-23; potency against reference material; storage at 5 C, 12 months (second Binding ELISA row)
Experimental: as §1, §2

[3] = biological target: T1, human IL-23; test: equilibrium binding ELISA on plates coated with human IL-23; potency against reference material; storage at 5 C, 6 months
Experimental: as §1, §2

[4] = biological target: T1, human IL-23; test: equilibrium binding ELISA on plates coated with human IL-23; potency against reference material; storage at 5 C, initial
Experimental: as §1, §2

[5] = biological target: T1, human IL-23; test: equilibrium binding ELISA on plates coated with human IL-23; potency against reference material; storage at 25H (25 C/60% RH), 6 months
Experimental: as §1, §2

[6] = biological target: T1, human IL-23; test: equilibrium binding ELISA on plates coated with human IL-23; potency against reference material; storage condition RH4 table, initial
Experimental: as §1, §2

[7] = biological target: T1, human IL-23; test: equilibrium binding ELISA on plates coated with human IL-23; potency against reference material; storage at RH4 (40 C/75% RH), 6 months
Experimental: as §1, §2

[8] = biological target: T1, human IL-23; test: equilibrium binding ELISA on plates coated with human IL-23; potency against reference material; storage condition 25H table, initial
Experimental: as §1, §2

[9] = biological target: T1, human IL-23; test: equilibrium binding ELISA on plates coated with human IL-23; potency against reference material; storage at 5 C, 24 months (second Binding ELISA row)
Experimental: as §1, §2

[10] = biological target: T1, human IL-23; test: equilibrium binding ELISA on plates coated with human IL-23; potency against reference material; storage at 25H (25 C/60% RH), 12 months (second Binding ELISA row)
Experimental: as §1, §2

B1: humanized anti-IL-23p19 antibody 13B8-b (antibody, human IgG1, kappa, V domains shown)
VH: QVQLVQSGAEVKKPGASVKVSCKASGYIFITYWMTWVRQAPGQGLEWMGQIFPASGSADYNEKFEGRVTMTTDTSTSTAYMELRSLRSDDTAVYYCARGGGGFAYWGQGTLVTVSS
VL: DIQMTQSPSSLSASVGDRVTITCRTSENIYSYLAWYQQKPGKAPKLLIYNAKTLAEGVPSRFSGSGSGTDFTLTISSLQPEDFATYYCQHHYGIPFTFGQGTKVEIKR
notes: Made in CHO cells; Tested as a stored formulation (10 mM histidine pH 6.0, 7% sucrose, 0.05% polysorbate 80, about 100 mg/ml); also called hum13B8-b; anti-IL-23p19 mAb hum13B8-b
Binding ELISA Potency relative to control [%] [1]: 100% | Binding ELISA Potency relative to control [%] [2]: 98% | Binding ELISA Potency relative to control [%] [3]: 96% | Binding ELISA Potency relative to control [%] [4]: 112% | Binding ELISA Potency relative to control [%] [5]: 99% | Binding ELISA Potency relative to control [%] [6]: 112% | Binding ELISA Potency relative to control [%] [7]: 104% | Binding ELISA Potency relative to control [%] [8]: 112% | Binding ELISA Potency relative to control [%] [9]: 103% | Binding ELISA Potency relative to control [%] [10]: 105%
